Data taken from patent publication US7981602B2, “Photoproteins with enhanced bioluminescence and assays using the same” (AXXAM S.R.L., priority 2005, dated 2011).

B1: 25N03b: mutant Clytin photoprotein from random mutagenesis, clone 25N03b (sequence ID no 16) (protein)
chain: MADTASKYAVKLRPNFDNPKWVNRHKFMFNFLDINGDGKITLDEIVSKASDDICAKLGATPEQTKRHQDAVEAFFKKIGMDYGKEVEFPAFVDGWKELANYDLKLWSQNKKSLIRDWGEAVFDIFDKDGSGSISLDEWKAYCRISGICSSDEDAEKTFKHCDLDNSGKLDVDEMTRQHLGFWYTLDPNADGLYGNFVP
B2: 12mutCly: mutant Clytin photoprotein 12mutCly (SEQ ID NO: 19), expressed in CHOK1 cells (protein)
chain: MADTASKYAVKLRPNFDNPKWVNRHKFMFNFLDINGDGKITLDEIVSKASDDICAKLEATPEQTKRHQVCVEAFFRGCGMEYGKEIAFPQFLDGWKQLATSELKKWARNEPTLIREWGDAVFDIFDKDGSGSISLDEWKAYGRISGICSSDEDAEKTFKHCDLDNSGKLDVDEMTRQHLGFWYTLDPNADGLYGNFVP

Key:
[1] = In vitro transcription and translation, light emission upon calcium injection; format: biochemical; settings: translation mixture, 5 μM CaCl2 injected, luminescence recorded 10 seconds; comparison among the 8 mutants (FIG. 2)
Experimental: Translation of the photoproteins was carried out in the rabbit reticulocyte cell-free system (TNT Quick coupled kit, Promega), following the general instructions of the supplier. 500 ng of DNA was used for each in vitro transcription/translation reaction mix. The reaction volume (10 μl) included 8 μl of TNT T7 Quick Master Mix, 1.6 μl of DNA, 0.2 μl of the Methionine buffer and 0.2 μl of Coelenterazine (0.5 mM). To this end, 5 μl from each sample of the translation mixture were tested for light emission by the injection of calcium solution and by measuring at the Ascent Luminoskan (Labsystems).
5 μl of the translation mixture were directly mixed with 95 μl of PBS solution in a 96 well plate which was mounted into the Luminometer (Berthold). To trigger photoprotein light emission, a 5 μM CaCl2 solution was injected into the well and luminescence recorded for 10 seconds.

[2] = Recombinant photoprotein light emission upon 1 mM calcium injection; format: biochemical; settings: 1 mM CaCl2 (FIG. 6)
Experimental: For the production of the recombinant protein we followed a small scale protein purification protocol under native conditions. Due to the presence of an N-terminal His tag in our constructs, we decided to purify the expressed proteins on Ni-NTA Spin Columns (Qiagen) following the suppliers' protocol.
In order to evaluate the response of the photoprotein to different calcium concentrations, 0.05 ng/well (96 MTP) of the recombinant protein were charged with Coelenterazine 10 μM overnight at 4° C.
After incubation, different concentrations of CaCl2 were injected and the light released was measured at the Ascent Luminoskan with an integration time of 20 ms for a total time of 10 seconds.
Recombinant photoproteins corresponding to some mutants were produced under native conditions following a small scale purification protocol.
In another experiment, the recombinant photoprotein 25N03b was compared to recombinant Aequorin.

[3] = tested on: CHOK1/mito12mutCly cell line; test: ATP-stimulated luminescence in CHOK1/mito12mutCly cell line (CCD camera); format: cell-based; settings: ATP stimulation, 2.5 or 5 μM coelenterazine
Experimental: Clone Selection Process: • CHO-K1 were transfected with pcDNA3Neo^−/MITO-hMutated-clytin or pcDNA3Neo^−/CYTO-hMutated-clytin. • 48 h after transfection, the transfected cells were plated in 10×96 w/p in complete DMEM. • At confluence the 10×96 w/p were duplicated in 10 white plates. 3 1/2 hours before measurements, medium was replaced with 50 μl/well of tyrode (2 mM Ca^2+ and coelenterazine 10 μM). • Positive clones were selected evaluating: • First selection was done lysing cells with TRITON X-100. CCD camera conditions: low sensitivity, integration time 1 second reading for 5 seconds. • Five clones were chosen each diluted in 3×96 w/p. • At confluence the 15×96 w/p were duplicated in 15 white plates. […] CCD camera conditions: low sensitivity, integration time 1 second reading for 30 seconds for the ATP measurement followed by 30 seconds for TRITON X-100. • Four limiting dilutions of the best clone selected were performed, 0.3 cells per well in 10×96 w/p. • The final clone was chosen after the 4th LD selected with ATP 0.25 μM, coelenterazine 5 μM. • Complete optimization of the assay was performed on the best responding clone.
CHO cells are seeded at different cell densities in 384MTP (500, 750, 1,000, 1,500 cells/well) in growth media supplemented as above and measured with a CCD camera 24 hours and 48 hours after plating. […]

Molecule	light emission of in vitro translated mutants upon calcium injection [1]	light emission recorded upon 1 mM CaCl2 injection, compared to recombinant Aequorin [2]	light emission and sensitivity to Ca2+ in cells [3]
B1	best responding mutant	surprisingly higher	
B2			high light emission and sensitivity to Ca^2+
